Experiments:
[1] = molecular target: Huc protomer (HucSL heterodimer) (Mycobacterium smegmatis mc2155); assay: cryo-EM structure
[2] = molecular target: the molecule itself; assay: cryo-EM structure

“Huc protomer (HucSL heterodimer) (complex)” was tested, and the stoichiometry N [1] was 2.

B1: HucM (MSMEG_2261) (natural protein)
chain: MASNGHSAGQNAIDELPDISPVDGIRRRLDDPQVAEALNSLLDHADLLAVLVKGLDGFVRRGDDIANNLTSAIGELKALNAADTPIPALAALKDVDLAGLANSLATLSGGLVKATPALNAVLDSLTDQRGAEVLSALGDALVAARTSAPPAPRGVRGMWKTLRAAAKDPDVGRGVSYLIEVARVFGSKV
B1 was tested, and the “stoichiometry N” value [2] was 4.
